Experimental data as given in the supplement of paper PMC9233669.
Fewer inactive variants are shown than the library holds.

What was measured:
biotinyl-Phe-oxazolone = assay: self-aminoacylation, catalytic enhancement (BFO) (fold over background); higher = more active; k-Seq, kA / k0A0; sequences stand for … in GGGAAUGGAUCCACAUCUACGAAUUC…UUCACUGCAGACUUGACGAAGCUG
In short: (§1)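 Catalytic enhancement equals the median kA over the uncatalyzed rate, the latter read from the low-activity peak of a bimodal Gaussian fit. Values of kA came from fitting each sequence's fraction reacted to a pseudo-first-order model, with 1000 bootstraps. Reacted RNA was captured with streptavidin and quantified by triplicate qPCR and Illumina sequencing after 90 minutes at room temperature with 2–1250 μM biotinyl-aminoacyl-oxazolone and 0.43 μM mutagenized RNA pools bearing a 21-nt variable region.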

biotinyl-Ile-oxazolone = assay: self-aminoacylation, catalytic enhancement (BIO) (fold over background); higher = more active; k-Seq, kA / k0A0; sequences stand for … in GGGAAUGGAUCCACAUCUACGAAUUC…UUCACUGCAGACUUGACGAAGCUG
In short: as §1

biotinyl-Met-oxazolone = assay: self-aminoacylation, catalytic enhancement (BMO) (fold over background); higher = more active; k-Seq, kA / k0A0; sequences stand for … in GGGAAUGGAUCCACAUCUACGAAUUC…UUCACUGCAGACUUGACGAAGCUG
In short: as §1

biotinyl-Val-oxazolone = assay: self-aminoacylation, catalytic enhancement (BVO) (fold over background); higher = more active; k-Seq, kA / k0A0; sequences stand for … in GGGAAUGGAUCCACAUCUACGAAUUC…UUCACUGCAGACUUGACGAAGCUG
In short: as §1

biotinyl-Leu-oxazolone = assay: self-aminoacylation, catalytic enhancement (BLO) (fold over background); higher = more active; k-Seq, kA / k0A0; sequences stand for … in GGGAAUGGAUCCACAUCUACGAAUUC…UUCACUGCAGACUUGACGAAGCUG
In short: as §1

biotinyl-Trp-oxazolone = assay: self-aminoacylation, catalytic enhancement (BWO) (fold over background); higher = more active; k-Seq, kA / k0A0; sequences stand for … in GGGAAUGGAUCCACAUCUACGAAUUC…UUCACUGCAGACUUGACGAAGCUG
In short: as §1

Sequence	self-aminoacylation (biotinyl-Phe-oxazolone)	self-aminoacylation (biotinyl-Ile-oxazolone)	self-aminoacylation (biotinyl-Met-oxazolone)	self-aminoacylation (biotinyl-Val-oxazolone)	self-aminoacylation (biotinyl-Leu-oxazolone)	self-aminoacylation (biotinyl-Trp-oxazolone)
AAGUUUGCCAAUAGUCGCAUG [Fam3.1 aminoacylation ribozyme variant]	1.7	1.5	1.79	1.59	1.45	1.56
AUUCACCUGGGUCACCGGGUG [Fam2.2 aminoacylation ribozyme variant]	22.4	3.43	4.54	2.97	5.41	5.36
AUUUCCCUGGUCAUCCAGUGA [Fam2.1 aminoacylation ribozyme variant]	55.4	4.3	7.52	4.5	8.35	9.93
AAGUUUGUUAAUAGGCGCAAG [Fam3.1 aminoacylation ribozyme variant]	1.05	0.767	0.799	0.652	0.556	0.763
AUUCACCUAGGUGAUCGGUUG [Fam2.2 aminoacylation ribozyme variant]	3.17	0.875	0.928	0.921	0.93	1.03
CUACUCCAUACAAUCGGUCUG [Fam1A.1 aminoacylation ribozyme variant]	0.859	0.833	0.719	0.751	0.628	0.549
CUACUUCAUACAAUCGGUCCG [Fam1A.1 aminoacylation ribozyme variant]	0.5	0.675	0.76	0.653	0.669	0.49
AUUCACCUCGUUCAUCGGGUG [Fam2.2 aminoacylation ribozyme variant]	26.3	2.93	4.1	3.3	5.48	5
AUUCACCUAGGUCCUCGGGGG [Fam2.2 aminoacylation ribozyme variant]	9.54	2.8	2.98	2.85	2.98	2.42
AUUCACCUACCUCAUCGGGUG [Fam2.2 aminoacylation ribozyme variant]	22.3	2.21	2.69	2.33	4.3	2.79
AUUCACCUACGUCAUUGGGUG [Fam2.2 aminoacylation ribozyme variant]	10.9	1.5	1.97	1.51	2.47	1.51
AUUCACCUAGGUCAUCAGAUG [Fam2.2 aminoacylation ribozyme variant]	0.715	0.857	0.656	0.872	0.928	0.522
CUACUUCAGAUAAUCGGUCUG [Fam1A.1 aminoacylation ribozyme variant]	0.629	0.643	0.648	0.686	0.675	0.432
AUUACCAUGGUCAUCGAGUGG [Fam2.1 aminoacylation ribozyme variant]	2.67	1.72	2.45	1.63	3.14	2.18
CUACUACAAACAAUCGGUCUC [Fam1A.1 aminoacylation ribozyme variant]	1.05	0.647	0.53	0.59	0.418	0.673
AUUAACCUAGGUCAUCCGGUG [Fam2.2 aminoacylation ribozyme variant]	29.5	3.59	5.02	3.29	4.91	5.68
AGGUUUGCUAAUAGUCGCAAG [Fam3.1 aminoacylation ribozyme variant]	22	1.56	1.75	1.38	1.41	6.61
AUUCGCCUAGGCCAUCGGGUG [Fam2.2 aminoacylation ribozyme variant]	35.5	3.15	4.46	4.16	5.27	4.7
AUACACCUAGGUCAUCGGAUG [Fam2.2 aminoacylation ribozyme variant]	0.387	1.03	0.978	0.946	0.994	0.96
CAACACUUCAAGCAAUCGGUG [Fam1B.1 aminoacylation ribozyme variant]	4.92	3.09	4.13	2.73	4.86	3.87
CUACGUCAAACAGUCGGUCUG [Fam1A.1 aminoacylation ribozyme variant]	3.92	1.14	1.25	1.52	1.75	1.14
CGACAUCAAACAAUCGGUCUG [Fam1A.1 aminoacylation ribozyme variant]	3.7	1.11	1.05	1.19	0.934	2.71
AUUACCAUGGUCAUCGAGAGA [Fam2.1 aminoacylation ribozyme variant]	0.497	0.797	0.859	0.864	0.937	1.38
CCACAUUUCAAGCAAUCAGUC [Fam1B.1 aminoacylation ribozyme variant]	1.71	1	0.755	1.1	0.906	0.884
AUUACGCAGGUCAUCGAGUGA [Fam2.1 aminoacylation ribozyme variant]	3.59	2.73	3.04	2.45	3.44	5.06

Sequence	self-aminoacylation (biotinyl-Phe-oxazolone)	self-aminoacylation (biotinyl-Ile-oxazolone)	self-aminoacylation (biotinyl-Met-oxazolone)	self-aminoacylation (biotinyl-Val-oxazolone)	self-aminoacylation (biotinyl-Leu-oxazolone)	self-aminoacylation (biotinyl-Trp-oxazolone)
AUUUCCCUGGUCAUCGCGUGA [Fam2.1 aminoacylation ribozyme variant]	157	9.18	18.9	10.4	20.9	22.5
CUUACCCUGGUCCUCGAGUGA [Fam2.1 aminoacylation ribozyme variant]	28.8	2.44	5.36	3.36	4.96	5.89
CUAGUUCAAACAGUCGGUCUG [Fam1A.1 aminoacylation ribozyme variant]	0.551	1.04	0.947	0.945	1.12	0.759
AUUCACUUAGGUCAUCGGCUG [Fam2.2 aminoacylation ribozyme variant]	4.69	1.46	1.47	1.65	1.17	1.45
AUUCAGCUAGGUCAUCCGGUG [Fam2.2 aminoacylation ribozyme variant]	44.2	5.29	6.6	5.44	8.88	8.08
AUUAUCCUGGUCAUCGAGUGC [Fam2.1 aminoacylation ribozyme variant]	1.72	1.29	1.77	1.25	2.16	0.981
CUGCUUCAAACAAGCGGUCUG [Fam1A.1 aminoacylation ribozyme variant]	0.392	0.718	0.597	0.731	0.777	0.576
CCACAAUUCAAGCAGUCGGUC [Fam1B.1 aminoacylation ribozyme variant]	1.06	1.36	1.11	1.22	1.17	0.925
AUUACCCGGGUCAUCGAGUGG [Fam2.1 aminoacylation ribozyme variant]	10.1	1.25	1.63	1.81	1.92	2.45
AACUUUGCUAGUAGUCGCAAG [Fam3.1 aminoacylation ribozyme variant]	3.31	2.68	2.63	2.67	2.9	3.53
AUUACCAUGGUCAUCGAGUGC [Fam2.1 aminoacylation ribozyme variant]	0.948	1.12	1.38	1.17	1.47	1.35
AUCCACCUAGGUCAUCGGAUG [Fam2.2 aminoacylation ribozyme variant]	0.726	1.4	1.19	1.65	1.11	1.04
AUCCACCUAGCUCAUCGGGUG [Fam2.2 aminoacylation ribozyme variant]	23.3	2.2	3.28	2.89	2.55	2.55
AAGUUUGUUUAUAGUCGCAAG [Fam3.1 aminoacylation ribozyme variant]	1.47	1.3	1.34	1.24	1.26	1.52
AUUCAUCUAUGUCAUCGGGUG [Fam2.2 aminoacylation ribozyme variant]	50.7	4.09	6.63	3.8	8.74	6.27
AAGUUUGCUUAAAGUCGCAAG [Fam3.1 aminoacylation ribozyme variant]	1.07	0.972	0.754	0.897	0.896	1.1
GUUAUCCUGGUCAUCGAGUGA [Fam2.1 aminoacylation ribozyme variant]	16.1	6.24	10.9	5.41	9.81	13.1
AGGUUUGCUAAUAGUCGCCAG [Fam3.1 aminoacylation ribozyme variant]	1.14	1.39	1.51	1.35	1.52	2.22
UUCACCCUGGUCAUCGAGUGA [Fam2.1 aminoacylation ribozyme variant]	13.2	5.88	11.3	6.29	10.6	12.7
CGACACUUCAAGCAUUCGGUC [Fam1B.1 aminoacylation ribozyme variant]	3.31	1.8	1.64	1.99	1.55	1.51
AUUACACUGGUCAUCGAGUCA [Fam2.1 aminoacylation ribozyme variant]	0.583	0.877	0.865	0.83	0.857	0.497
UAUACCCUGGUCAUCGAGUGA [Fam2.1 aminoacylation ribozyme variant]	25.2	7.17	14.8	7.52	15.5	16
CCACUCUGCAAGCAAUCGGUC [Fam1B.1 aminoacylation ribozyme variant]	1.11	1.24	1.06	1.41	1	1.09
ACGUGUGCUAAUAGUCGCAAG [Fam3.1 aminoacylation ribozyme variant]	4.86	1.6	1.62	1.28	1.68	1.63
